According to publication PMC3784511:

Molecular target: T1, NF-kB p50 homodimer (UniProt P19838)
T1 sequence: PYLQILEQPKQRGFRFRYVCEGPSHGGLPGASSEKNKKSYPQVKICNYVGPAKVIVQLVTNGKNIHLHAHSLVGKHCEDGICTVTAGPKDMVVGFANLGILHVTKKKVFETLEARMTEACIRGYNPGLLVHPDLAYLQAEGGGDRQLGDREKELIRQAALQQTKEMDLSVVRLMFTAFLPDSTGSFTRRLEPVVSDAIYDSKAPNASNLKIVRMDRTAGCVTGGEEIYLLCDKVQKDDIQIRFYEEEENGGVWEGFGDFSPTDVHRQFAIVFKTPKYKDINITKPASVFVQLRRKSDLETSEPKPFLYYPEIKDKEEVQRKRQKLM
Assay: UV laser footprinting
Details: 10 mM Tris pH 7.4, 75 mM NaCl, 1 mM EDTA, 1 mM DTT, 100 ug/ml BSA, 0.01% NP40 (omitted in dilution experiments), 5% glycerol, 37 C; naked DNA supplemented with …

GCTCGGAATTCTATCCGACTGGCACCGGCAAGGTCGCTGTTCAATACATGCACAGGATGTATATATCTGACACGTGCCTGGAGACTAGGTAGTAATTCTCTTGGCGGTTAAAACGCGGTGTACAGCGCGTACGTGCGTTTAAGCGGTGCTAGAGCTTGCTACGACCAATTGAGCGGCCTCGGCACGGGGATTCCCCAGGTCGGCCGCGTATAGTGTCCATCACATAAGTGATGAACTCGGTCTTAAGAATCATGC (double strand) [601_D7 DNA (255 bp)]
Kd: 14 nM
